# Literature values as cited in PMC8808565 (iScience, 2022).
# B1: human defensin 5 (protein, UniProt Q01523 20-94, looked up)
# Defensin alpha 5: ESLQERADEATTQKQSGEDNQDLAISFAGNGLSALRTSGSQARATCYCRTGRCATRESLSGVCEISGRLYRLCCR
# modifications: Defensin-5
# Tested on: ACE2
molecule,measurement,value
B1,target (in words),target ACE2
